The values below come from US20250213707A1, “COMPOUND FOR INCREASING EFFICACY OF ONCOLYTIC VIRUSES” (ABLEVIA BIOTECH GMBH, priority 2022, published 2025).

To fix the notation:
B1: … (peptide)
peptide: WGTVCNNGWS
modifications: not checked
B2: ESALWDC (peptide)
peptide: ESALWDC
modifications: not checked
B3: … (peptide)
peptide: QEEWGTVCNNGWS
modifications: not checked
B4: … (peptide)
peptide: VSCRGNESALWDC
modifications: not checked
B5: … (peptide)
peptide: WGTVCNNGWSMEA
modifications: not checked
B6: … (peptide)
peptide: EWGTVCNNGW
modifications: not checked
B7: … (peptide)
peptide: VQEEWGTVCNNGW
modifications: not checked
B8: … (peptide)
peptide: EEWGTVCNNGWSM
modifications: not checked
B9: … (peptide)
peptide: CSGRVEVKVQEEW
modifications: not checked
B10: … (peptide)
peptide: RGNESALWDC
modifications: not checked
B11: … (peptide)
peptide: ESALWDCKHDGWG
modifications: not checked
B12: … (peptide)
peptide: NESALWDCKHDGW
modifications: not checked
B13: … (peptide)
peptide: CRGNESALWD
modifications: not checked
B14: … (peptide)
peptide: EWGTVCNNGWSME
modifications: not checked
B15: … (peptide)
peptide: DHVSCRGNESALW
modifications: not checked
B16: … (peptide)
peptide: ALWDCKHDGW
modifications: not checked
B17: … (peptide)
peptide: SCRGNESALW
modifications: not checked

The target in this assay is mAb Mac2-158. Nature of the assay: circular peptide array.
Regarding B1, the rank of binding signal amounted to 20 rank.

As for B2, the rank of binding signal was 1 rank.

B3 had a rank of binding signal of 9 rank.

Turning to B4, the rank of binding signal came to 5 rank.

As for B5, the rank of binding signal was found to be 12 rank.

Regarding B6, the rank of binding signal came to 19 rank.

B7 showed a rank of binding signal of 18 rank.

As for B8, the rank of binding signal was found to be 14 rank.

B9: the rank of binding signal came out at 7 rank.

As to B10, the rank of binding signal stood at 2 rank.

Take B11: the rank of binding signal is 17 rank.

With B12, the rank of binding signal was found to be 13 rank.

For B13, the rank of binding signal worked out at 11 rank.

As to B14, the rank of binding signal was 4 rank.

In turn, B15 returned a rank of binding signal of 8 rank.

B16 displayed a rank of binding signal of 6 rank.

In turn, B17 showed a rank of binding signal of 3 rank.
